From patent US20220048996A1 (F STAR BETA, published 2022)

What was measured:
[1] = target: T1, hFcγR2b (R&D Systems 1460-CD-050/CF) (human, UniProt P31994 46-217, limits assumed); experiment: SPR, antibody 100 nM on CD137-his chip co-injected with FcγR 500 nM
T1 construct: Bought; also called FcγRIIb
T1 sequence (looked up): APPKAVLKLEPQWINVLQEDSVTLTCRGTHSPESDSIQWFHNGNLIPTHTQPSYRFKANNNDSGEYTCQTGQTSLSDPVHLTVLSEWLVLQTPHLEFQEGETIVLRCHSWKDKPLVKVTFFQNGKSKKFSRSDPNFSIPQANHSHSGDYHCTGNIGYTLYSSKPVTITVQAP
Description: (§1) Binding was tested on a Biacore 3000 instrument (GE Healthcare). Human OX40 (BPS Bioscience cat no 71310) and human CD137 (produced in house) biotinylated his-tagged antigens were coated onto an SA chip (GE Healthcare cat no BR100398) at 2 μM concentration. Human OX40 and human CD137 were coated on separate flow cells, while another flow cell was left blank for background subtraction. Regeneration conditions were determined to be 12 μl aqueous 10 mM glycine-HCl at pH2.0 at 20 μl/min flow rate. Antibodies (see Table 8) and human FcγRs (see Table 8) were diluted to 100 nM (antibodies) or 500 nM (human FcγRs) in HBS-P (0.01 M HEPES pH 7.4, 0.15 M NaCl, 0.005% v/v Surfactant P20, GE Healthcare, BR-1003-68) and co-injected at 20 μl/min flow rate and the dissociation was followed for 5 min.
(§2) Data analysis was performed with BiaEvaluation software version 3.2 RC1 by referencing against the blank flow cell and aligning the curves after the association of the antibody. Values for binding response at the end of the association phase were generated by subtracting the […] to normalize the effect of the antibody binding to the OX40 and CD137 receptors.

[2] = target: T2, hFcγR2a (R&D Systems 1330-CD-050/CF) (human, UniProt P12318 36-218, limits assumed); experiment: as above
T2 construct: Bought; also called FcγRIIa
T2 sequence (looked up): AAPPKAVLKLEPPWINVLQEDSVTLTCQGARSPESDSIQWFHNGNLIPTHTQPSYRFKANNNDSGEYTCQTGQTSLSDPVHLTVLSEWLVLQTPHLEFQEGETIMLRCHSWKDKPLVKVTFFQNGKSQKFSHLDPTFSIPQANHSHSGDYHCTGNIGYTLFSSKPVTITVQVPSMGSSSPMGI
Description: as §1, §2

[3] = target: T3, hFcγR3a (R&D Systems 4325-FC-050/CF) (human, UniProt P08637 17-208); experiment: as above
T3 construct: Bought; In the ADCC bioassay FcγRIIIa stood on engineered Jurkat cells; also called FcγRIIIa
Description: as §1, §2

[4] = target: T4, hFcγR1 (R&D Systems 1257-FC-050/CF) (human, UniProt P12314 16-288); experiment: as above
T4 construct: Bought; also called FcγRI
Description: as §1, §2

[5] = target: T5, human CD137 expressed on DO11.10 cells (DO11.10-hCD137) (human, UniProt Q07011 24-255); experiment: cell-based or functional assay
[6] = target: T5, human CD137 expressed on DO11.10 cells …; experiment: cell-based or functional assay; remark: listed apart in the source
[7] = target: T6, human OX40 expressed on DO11.10 cells (DO11.10-hOX40) (human, UniProt P43489 29-277); experiment: cell-based or functional assay
T6 sequence: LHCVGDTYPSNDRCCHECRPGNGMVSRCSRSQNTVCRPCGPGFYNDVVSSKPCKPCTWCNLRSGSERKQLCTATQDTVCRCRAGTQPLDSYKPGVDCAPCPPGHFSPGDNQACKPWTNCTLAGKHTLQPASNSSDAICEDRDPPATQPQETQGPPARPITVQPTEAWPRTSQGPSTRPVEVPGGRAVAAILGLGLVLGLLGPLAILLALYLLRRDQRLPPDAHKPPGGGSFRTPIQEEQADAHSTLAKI

[8] = target: T7, hCD137-mFc-Avi (human); experiment: SPR, antibody captured via anti-human Fc, dimeric antigen flowed, 1:1 fit
T7 construct: Dimer; a biotinylated version was used where the text says so; also called human CD137-mFc-Avi; hCD137-mFc-Avi-Bio
Description: (§3) For CD137 affinity determination, a Biacore CM5 chip (GE Healthcare) was coated with anti-human Fc using a Human Antibody Capture Kit (GE Healthcare) according to manufacturer's conditions, to a surface density of approximately 4000 RU. […] Human or cynomolgus CD137 (hCD137-mFc-Avi or cCD137-mFc-Avi) was flowed over at a range of concentrations in a three-fold dilution series starting at 200 nM, at a flow rate of 70 μl/min. The association time was 2 min and the dissociation time was 8 min. Running buffer was HBS-EP (GE Healthcare BR100188). Flow cells were regenerated by injecting 3M magnesium chloride at a flow rate of 30 μl/min for 30 seconds.
(§4) The binding kinetics were fit with a 1:1 Langmuir model to generate binding association (kₐ) and dissociation (kd) rates. Equilibrium binding constants (KD) were calculated by dividing the dissociation rate by the association rate for each sample. Data analysis was performed with BiaEvaluation software version 3.2.

[9] = target: T8, cCD137-mFc-Avi (cynomolgus monkey); experiment: as above
T8 construct: 139 used; also called cyno CD137-mFc-Avi; recombinant cyno CD137
T8 chain: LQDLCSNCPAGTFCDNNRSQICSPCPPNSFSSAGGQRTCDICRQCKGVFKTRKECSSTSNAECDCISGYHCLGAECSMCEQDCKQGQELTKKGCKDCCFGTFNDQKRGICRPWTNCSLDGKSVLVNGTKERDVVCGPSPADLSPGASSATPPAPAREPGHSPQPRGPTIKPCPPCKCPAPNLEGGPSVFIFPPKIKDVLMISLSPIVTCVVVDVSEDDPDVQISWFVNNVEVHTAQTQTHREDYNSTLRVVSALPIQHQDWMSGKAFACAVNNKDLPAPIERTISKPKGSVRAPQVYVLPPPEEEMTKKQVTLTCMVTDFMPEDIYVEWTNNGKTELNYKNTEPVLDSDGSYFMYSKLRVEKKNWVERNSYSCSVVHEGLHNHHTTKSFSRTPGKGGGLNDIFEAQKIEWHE
Description: as §3, §4

T5 sequence (Q07011 24-255): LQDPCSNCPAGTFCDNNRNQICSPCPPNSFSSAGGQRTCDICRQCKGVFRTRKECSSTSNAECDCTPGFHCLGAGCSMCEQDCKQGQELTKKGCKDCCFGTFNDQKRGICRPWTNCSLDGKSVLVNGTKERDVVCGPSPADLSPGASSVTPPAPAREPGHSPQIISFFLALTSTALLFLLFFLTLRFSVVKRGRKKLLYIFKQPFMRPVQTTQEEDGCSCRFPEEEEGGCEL
T4 sequence (P12314 16-288 limits assumed): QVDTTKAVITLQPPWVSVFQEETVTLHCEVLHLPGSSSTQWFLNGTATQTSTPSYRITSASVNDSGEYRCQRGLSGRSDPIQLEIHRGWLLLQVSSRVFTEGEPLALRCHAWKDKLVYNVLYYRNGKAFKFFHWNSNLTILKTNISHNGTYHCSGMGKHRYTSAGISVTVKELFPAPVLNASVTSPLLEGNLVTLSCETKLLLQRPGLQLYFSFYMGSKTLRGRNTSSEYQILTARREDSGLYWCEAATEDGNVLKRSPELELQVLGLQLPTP
T3 sequence (P08637 17-208 limits assumed): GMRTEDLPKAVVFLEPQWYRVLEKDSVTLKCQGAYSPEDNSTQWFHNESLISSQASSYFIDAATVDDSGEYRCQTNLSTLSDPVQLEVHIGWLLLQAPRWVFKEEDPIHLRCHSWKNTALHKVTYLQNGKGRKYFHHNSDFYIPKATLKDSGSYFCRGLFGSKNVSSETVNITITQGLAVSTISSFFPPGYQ

B1: FS20-22-49AA/FS30-10-16 (bispecific antibody, human IgG1, kappa, L234A L235A)
heavy: EVQLLESGGGLVQPGGSLRLSCAASGFTFSSYDMSWVRQAPGKGLEWVSDIDPTGSKTDYADSVKGRFTISRDNSKNTLYLQMNSLRAEDTAVYYCARDLLVYGFDYWGQGTLVTVSSASTKGPSVFPLAPSSKSTSGGTAALGCLVKDYFPEPVTVSWNSGALTSGVHTFPAVLQSSGLYSLSSVVTVPSSSLGTQTYICNVNHKPSNTKVDKKVEPKSCDKTHTCPPCPAPEAAGGPSVFLFPPKPKDTLMISRTPEVTCVVVDVSHEDPEVKFNWYVDGVEVHNAKTKPREEQYNSTYRVVSVLTVLHQDWLNGKEYKCKVSNKALPAPIEKTISKAKGQPREPQVYTLPPSRDEYWDQEVSLTCLVKGFYPSDIAVEWESNGDEQFAYKTTPPVLDSDGSFFLYSKLTVDQYRWNPADYFSCSVMHEALHNHYTQKSLSLSPG
light: EIVLTQSPGTLSLSPGERATLSCRASQSVSSSYLAWYQQKPGQAPRLLIYGASSRATGIPDRFSGSGSGTDFTLTISRLEPEDFAVYYCQQSYSYPVTFGQGTKVEIKRTVAAPSVFIFPPSDEQLKSGTASVVCLLNNFYPREAKVQWKVDNALQSGNSQESVTEQDSKDSTYSLSSTLTLSKADYEKHKVYACEVTHQGLSSPVTKSFNRGEC
notes: IgG1 with LALA; also called OX40/CD137 mAb^2; copies: 2 + 2
In the case of B1, the “binding response at end of association phase of FcγR” value [1] is reported as 9 RU, the “binding response at end of association phase of FcγR” value [2] is reported as 10.9 RU and the “binding response at end of association phase of FcγR” value [3] is reported as 17.3 RU. The “binding response at end of association phase of FcγR” value [4] was 246 RU, the “decrease of binding response at end of dissociation phase of FcγR” value [4] was 367 RU and the “EC50 of mIL-2 release, DO11.10-hCD137 assay, crosslinked” value [5] was 4.7 nM. For the same binder, the “Emax of mIL-2 release, DO11.10-hCD137 assay, crosslinked” value [5] was 16300 pg/mL, the “CD8+ T cell activation assay, hIL-2 release EC50, crosslinked” value [6] was 1.98 nM and the “CD8+ T cell activation assay, hIL-2 release EC50, no crosslinker” value [6] was 0.118 nM. For the same binder, the “CD4+ T cell activation assay, hIL-2 release EC50, crosslinked” value [7] was 0.0833 nM, the “CD4+ T cell activation assay, hIL-2 release EC50, no crosslinker” value [7] was 0.113 nM and the Kd [8] was 0.17 nM. For the same binder, the Kd [9] was 0.15 nM.
